{"source": "patent US20250263444A1", "about": "“vIRF3-Derived Peptide and Use Thereof for Preventing or Treating Cancer” (priority 2022, published 2025)", "key": {"PKM2 [1]": {"target": "T1, PKM2 (Homo sapiens, UniProt P14618)", "T1 sequence (P14618 whole entry, the tested form may be a part)": "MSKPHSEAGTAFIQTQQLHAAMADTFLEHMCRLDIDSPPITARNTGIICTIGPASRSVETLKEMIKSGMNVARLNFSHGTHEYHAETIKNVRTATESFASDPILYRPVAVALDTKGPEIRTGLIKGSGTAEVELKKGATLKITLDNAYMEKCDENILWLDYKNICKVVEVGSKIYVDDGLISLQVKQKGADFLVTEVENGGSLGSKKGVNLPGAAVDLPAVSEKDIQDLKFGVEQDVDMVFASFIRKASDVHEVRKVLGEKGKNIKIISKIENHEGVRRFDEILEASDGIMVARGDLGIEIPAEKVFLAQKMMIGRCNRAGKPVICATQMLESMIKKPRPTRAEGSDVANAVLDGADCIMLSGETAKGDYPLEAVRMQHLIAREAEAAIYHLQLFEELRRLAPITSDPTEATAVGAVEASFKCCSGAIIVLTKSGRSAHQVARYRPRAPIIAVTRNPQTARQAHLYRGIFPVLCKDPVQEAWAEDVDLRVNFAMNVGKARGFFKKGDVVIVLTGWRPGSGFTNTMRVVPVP", "assay": "Binding of vIRF3-derived peptide fragments to PKM2 (GST-pull down / immunoprecipitation, FIG. 7)", "design": "expressed in transfected cells", "excerpt": "A pCMV-HA-hPKM2 plasmid was provided by from the Miyagi Cancer Center Research Institute, Natori, Japan. In addition, a vIRF3 (Δ250-280) mutant was generated by sequentially deleting 10 amino acids from alanine 250 using a QuikChange XL site-directed mutagenesis kit (Agilent). Primer pairs used in vIRF3 deletion mutation were as follows: vIRF3(Δ250-260) forward 5′-[…]-3′ (SEQ ID NO: 8), vIRF3(Δ250-260) reverse 5′-[…]-3′ (SEQ ID NO: 9), vIRF3(Δ260-270) forward 5′-[…]-3′ (SEQ ID NO: 10), vIRF3(Δ260-270) reverse 5′-[…]-3′ (SEQ ID NO: 11), vIRF3(Δ270-280) forward 5′-[…]-3′ (SEQ ID NO: 12), and vIRF3(Δ270-280) reverse 5′-[…]-3′ (SEQ ID NO: 13). GST-tagged vIRF3 250-260, 260-270, and 270-280 were subcloned into a pEBG-GST vector with BamHI and NotI restriction sites using the following primers: vIRF3(250-260) forward 5′-[…] GGC-3′ (SEQ ID NO: 14), vIRF3(250-260) reverse 5′-[…] CG-3′ (SEQ ID NO: 15), vIRF3(260-270) forward 5′-GATCCGCCACCAT […]-3′ (SEQ ID NO: 16), vIRF3(260-270) reverse 5′-[…] G-3′ (SEQ ID NO: 17), vIRF3(270-280) forward 5′-[…] GC-3′ (SEQ ID NO: 18), and vIRF3 270-280 reverse 5′-[…] GGCG-3′ (SEQ ID NO: 19).\nThe indicated cells were infected regardless of the presence or absence of combination of plasmids. […] Cell lysates were immunoprecipitated against indicated proteins and analyzed by immunoblotting according to methods known in the art."}, "tetrameric form of PKM2": {"target": "T2, tetrameric form of PKM2 (Homo sapiens, UniProt P14618)", "T2 construct": "endogenous in cells; host or cells: E6/E7-immortalised LECs stably expressing V5-vIRF3 by lentivirus (PKM2 endogenous, vIRF3 transduced)", "T2 sequence (P14618 2-531 limits assumed)": "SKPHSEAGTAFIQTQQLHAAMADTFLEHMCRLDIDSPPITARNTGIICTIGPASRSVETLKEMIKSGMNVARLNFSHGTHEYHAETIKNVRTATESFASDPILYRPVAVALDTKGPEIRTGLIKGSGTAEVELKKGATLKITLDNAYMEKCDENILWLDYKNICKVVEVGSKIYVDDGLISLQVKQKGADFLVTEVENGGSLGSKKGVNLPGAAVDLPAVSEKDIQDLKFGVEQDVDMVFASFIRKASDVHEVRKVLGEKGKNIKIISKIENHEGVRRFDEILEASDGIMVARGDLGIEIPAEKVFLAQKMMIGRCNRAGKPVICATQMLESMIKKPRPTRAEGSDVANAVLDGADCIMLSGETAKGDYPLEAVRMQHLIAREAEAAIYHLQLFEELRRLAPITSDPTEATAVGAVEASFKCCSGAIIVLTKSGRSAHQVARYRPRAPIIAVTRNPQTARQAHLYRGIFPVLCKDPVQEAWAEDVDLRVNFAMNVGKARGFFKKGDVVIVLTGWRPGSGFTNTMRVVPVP", "assay": "PKM2 cross-linking and gradient SDS-PAGE immunoblotting", "format": "cell-based", "details": "LECs expressing vIRF3; FIG. 8B", "protocol": "293T cells were infected with indicated combination of plasmids and harvested 48 hours after infection. The cells were lysed with a NP40 lysis buffer supplemented with a protease inhibitor (150 mM NaCl, 0.5% NP40, 50 mM pH 8.0 Tris-HCl) and treated with 0.1% glutaraldehyde for 4 minutes at room temperature. Thereafter, gradient SDS-PAGE was performed with NuPAGE 4-12% Bis-Tris gel (Invitrogen) and analyzed by immunoblotting."}, "[2]": {"tested_on": "recombinant KSHV-infected LECs", "assay": "Xenograft model, subcutaneous peptide administration", "format": "in vivo, mice"}, "ATP-citrate lyase (ACLY)": {"tested_on": "ATP-citrate lyase (ACLY)", "assay": "Immunoblotting with anti-acetyl-lysine antibody of LEC stable cell lines treated with ACLY inhibitor", "format": "cell-based", "details": "LEC lines pCDH, V5-vIRF3, V5-vIRF3(Δ250-280) treated with BMS303141", "protocol": "Acetyl-CoA is a crucial metabolite that provides acetyl groups for acetylation reaction of proteins including histone. To better understand the importance of acetyl-CoA upregulation by vIRF3 in LEC, first, it was confirmed whether vIRF3 may increase the overall acetylation level in LEC. To this end, cell lysates were analyzed by immunoblotting (IB) using an anti-acetyl-lysine antibody. […] Especially, cytosolic acetyl-CoA, which was involved in lysine acetylation of protein, regulating the activity, stability, or localization of many cell proteins is primarily generated by the translocation of citrate from the mitochondria to the cytoplasm via ATP-citrate lyase (ACLY). Therefore, three LEC stable cell lines encoding expression vectors of pCDH, V5-vIRF3, and V5-vIRF3(Δ250-280) were treated with an ACLY inhibitor BMS303141 and then analyzed by IB with an anti-acetyl-lysine antibody."}, "PKM2 [3]": {"target": "T1, PKM2", "assay": "Pyruvate kinase activity assay in LECs treated with TAT or TAT-VDP", "format": "cell-based", "design": "endogenous in cells; host or cells: E6/E7-immortalised LECs (LEC-V5-vIRF3 or LEC-vector)", "details": "LEC-V5-vIRF3 cells; VDP fused to HIV-1 TAT; FIG. 8C", "protocol": "Pyruvate kinase activity assay was performed with a Pyruvate Kinase Assay Kit (Sigma Aldrich) according to manufacturer's instructions. Briefly, LECs expressing a pCDH vector, vIRF3, and vIRF3(Δ250-280), respectively were harvested and washed twice with 1×PBS. The cells were suspended in 50 μl of a pyruvate kinase assay buffer and incubated for 15 minutes. Cell debris was removed by centrifugation at 13,000 rpm for 15 minutes. The supernatant was transferred to a 96-well plate and added with a kinase assay mixture. Absorbance was measured at 570 nm wavelength using a Varioskan Lux microplate reader (Thermo scientific)."}, "LEC-V5-vIRF3": {"tested_on": "LEC-V5-vIRF3", "assay": "Chorioallantoic membrane (CAM) invasion assay", "format": "in vivo, chick", "details": "0.2 mg peptide at 24 and 48 hours after cell seeding; IHC; FIG. 8D", "protocol": "The chick fertilized eggs were incubated at 37.5° C. with 70% humidified atmosphere in a Rcom D-50 incubator (Autoelex). After embryonic day (ED) 5, a 1.5 cm square hole was opened on the eggshell and sealed with a sterile parafilm tape. Embryos were monitored by daily candling. On ED 10, sterile silicone rings were placed onto the CAM of the embryo and added with indicated cells, and then the cells were seeded. 0.2 mg of TAT (a control peptide containing only a TAT sequence of HIV-1 (synthesized by Bionics)) or TAT-VDP according to the present invention (vRIF3-derived aa250-260 peptide bound with a TAT sequence (synthesized by Bionics)) was treated at 24 and 48 hours after cell seeding. Approximately 1 cm^2 of CAM around the silicone ring was harvested and fixed with 4% paraformaldehyde at 4° C. for 24 hours. Thereafter, samples were treated for immunohistochemistry and Hematoxyling and Eosin (H&E) staining."}}, "data": [{"compound": "vIRF3(270-280): fragment peptide of amino acids 270-280 of KSHV vIRF3 (SEQ ID NO: 5) (DEDLFDLLGIP)", "values": [{"measurement": "binding to PKM2", "setting": "PKM2 [1]", "result": "mutual-bound to PKM2"}]}, {"compound": "TAT-VDP: vRIF3-derived aa250-260 peptide bound with a TAT sequence of HIV-1 for intracellular delivery (synthesized by Bionics) (RRRQRRKKRGYGEQGVHYMLACA)", "values": [{"measurement": "vIRF3-mediated tetrameric form of PKM2", "setting": "tetrameric form of PKM2", "result": "sufficiently prevented"}, {"measurement": "tumor formation", "setting": "[2]; 0.2 mg peptide twice per week for 30 days, subcutaneous, FIG. 8E", "result": "remarkably inhibited"}]}, {"compound": "vIRF3(260-270): fragment peptide of amino acids 260-270 of KSHV vIRF3 (SEQ ID NO: 4) (EMDMLMRAMCD)", "values": [{"measurement": "binding to PKM2", "setting": "PKM2 [1]", "result": "mutual-bound to PKM2"}]}, {"compound": "COc1ccc(-c2ccccc2)cc1NS(=O)(=O)c1cc(Cl)cc(Cl)c1O", "note": "[BMS303141]", "values": [{"measurement": "increase of total acetylation levels by vIRF3", "setting": "ATP-citrate lyase (ACLY)", "result": "the increase of total acetylation levels was not confirmed"}]}, {"compound": "vIRF3-derived peptide: vIRF3-derived peptide of SEQ ID NO: 1, included within aa 250-280 of KSHV vIRF3 (ACALMYHVGQEMDMLMRAMCDEDLFDLLGIP)", "values": [{"measurement": "PK activity upregulated by vIRF3 expression", "setting": "PKM2 [3]", "result": "significantly inhibited"}, {"measurement": "invasion of LEC-V5-vIRF3 in CAM (invasive activity)", "setting": "LEC-V5-vIRF3", "result": "significantly inhibited"}, {"measurement": "size and volume of tumor", "setting": "[2]; subcutaneous injection, animal model transplanted with LECs infected with KSHV", "result": "significantly reduced"}]}]}
